This is an account of results in patent US8487076.

For experiment [1], the target named is HLA-A24 molecule, product of the HLA-A*2402 gene, on C1R-A24 cells (human). Put plainly: flow cytometry; acid-stripped C1R-A24 cells reassociated with b2m and peptide dilutions, stained with labeled mAb 17A12. The conditions noted are these: remark: other sources report otherwise. For orientation: Flow cytometry measures light scatter and fluorescence of single cells or particles in a stream.

Experiment [2] deals with HLA-A2 molecule, product of the HLA-A*0201 gene, on JY cells (human). Briefly: flow cytometry; acid-stripped JY cells reassociated with b2m and peptide dilutions, stained with labeled mAb BB7.2. The conditions noted are these: remark: other sources report otherwise.

With TLPPAWQPF [SEQ ID NO 1 (…), HLA-A24-binding 9 amino acid peptide of survivin], the -log Kd (-log Kd (Kd in molar concentration)) in experiment [1] was found to be 8.26.

Consider TLPPAWQPF [SEQ ID NO 23 (…), HLA-A2-binding 9 amino acid peptide of survivin], for which the -log Kd (-log Kd (Kd in molar concentration)) in experiment [2] is 5.36.

In experiment [1], FLKDHRISTF [SEQ ID NO 44 (…), HLA-A24-binding 10 amino acid peptide of survivin] gave a -log Kd (-log Kd (Kd in molar concentration)) of 7.01.

Consider FLKDHRISTF [SEQ ID NO 61 (…), HLA-A2-binding 10 amino acid peptide of survivin], for which the -log Kd (-log Kd (Kd in molar concentration)) in experiment [2] came out at 5.53.
